Source: patent publication US20230295259A1 (Protagonist Therapeutics, Inc., priority 2020, published 2023)
Positions of bridges follow the written chain, without caps; N, C: chain ends. Non-standard residues stand in square brackets, D forms with d. Groups on a side chain read outwards from the residue. *: point of attachment. PEG12 = NCCOCCOCCOCCOCCOCCOCCOCCOCCOCCOCCOCCOCCC(=O)O; Dip = N[C@H](C(=O)O)C(c1ccccc1)c1ccccc1; Palmitoyl = CCCCCCCCCCCCCCCC(=O)*; β3hF = N[C@H](CC(=O)O)Cc1ccccc1; Isovaleryl = CC(C)CC(=O)*; Dap = NC[C@H](N)C(=O)O

How the values were obtained:
[1] = target: human ferroportin (SLC40A1) fused in frame with GFP, stably expressed in HEK293 cells (human) (UniProt Q9NP59); assay: cell-based or functional assay
[2] = Stability in simulated intestinal fluid (FaSSIF with 1% pancreatin); assay type: in vitro ADME; conditions: pig, pH 6.5, Table 2A, 20 μM in FaSSIF with 1% pancreatin, 37° C., percent in brackets not explained, read-out: SIF Half life
Protocol: FaSSIF was prepared by dissolving 1.2 g porcine pancreatin (Chem-supply, PL378) in 100 mL Blank FaSSIF and stirred at room temperature for 30 minutes. The solution was filtered through 0.45 μm membrane and aliquot and stored at −20° C.
Experimental compounds of interest (20 μM) were incubated with pre-warmed FaSSIF (1% pancreatin in final incubation mixture) at 37° C. Aliquots were taken at various time points up to 24 hours (e.g. 0, 0.25, 1, 3, 6 and 24 hr), and immediately quenched with 4 volumes of organic solvent (acetonitrile/methanol (1:1) and 0.1% formic acid, containing 1 μM internal standard). Quenched samples were stored at 4° C. until the end of the experiment and centrifuged at 4,000 rpm for 10 minutes. The supernatant was diluted 1:1 with deionized water and analyzed using LC-MS. Percentage remaining at each time point was calculated based on the peak area ratio (analyte over internal standard) relative to the initial level at time zero. Half-lives were calculated by fitting to a first-order exponential decay equation using GraphPad.
Compounds of interest (at concentration of 20 μM) were mixed with pre-warmed FaSSIF (1% pancreatin in final working solution). The solution mixture was aliquoted and incubated at 37° C. The number of aliquots required was equivalent to the number of time points (e.g. 0, 0.25, 1, 3, 6 and 24 hr). […]

[3] = system: LAD2 cells; assay type: cell-based, human
Procedure, shortened: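 Compound serial dilutions were added to LAD2 human mast cells for 30 min. β-Hexosaminidase in supernatants and cell lysates was quantified with the fluorogenic substrate 4-methylumbelliferyl-N-acetyl-b-D-glucosaminide. Dose-response curves plotted % β-hexosaminidase release against peptide concentration.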

[4] = target: T1, ferroportin (endogenously expressed in T47D cells) (Homo sapiens, UniProt Q9NP59); assay: T47D cell-based ferroportin internalization assay in presence of 0.5% mouse serum albumin (AF647-conjugated detection peptide, flow cytometry); conditions: read-out: IC50: T47D Internalization MSA
T1 construct: is a human breast carcinoma adherent cell line which endogenously expresses ferroportin; host or cells: T47D
T1 sequence (Q9NP59 1-571): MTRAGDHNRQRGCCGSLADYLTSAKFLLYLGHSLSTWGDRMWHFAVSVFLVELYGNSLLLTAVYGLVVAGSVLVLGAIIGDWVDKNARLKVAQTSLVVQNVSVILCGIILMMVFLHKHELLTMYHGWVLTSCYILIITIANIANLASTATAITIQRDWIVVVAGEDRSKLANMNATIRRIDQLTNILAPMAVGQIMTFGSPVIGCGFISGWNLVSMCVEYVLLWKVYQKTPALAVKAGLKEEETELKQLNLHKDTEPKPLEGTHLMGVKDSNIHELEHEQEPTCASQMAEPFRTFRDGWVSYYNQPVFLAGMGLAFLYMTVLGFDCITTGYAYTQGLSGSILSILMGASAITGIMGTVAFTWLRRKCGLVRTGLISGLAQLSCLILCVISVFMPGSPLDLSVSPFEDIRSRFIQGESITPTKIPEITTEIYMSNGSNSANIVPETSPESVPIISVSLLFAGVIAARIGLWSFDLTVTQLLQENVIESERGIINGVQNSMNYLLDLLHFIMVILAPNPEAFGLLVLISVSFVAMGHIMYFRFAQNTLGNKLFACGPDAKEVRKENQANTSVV
Protocol: The potency of the peptides in causing ferroportin internalization was evaluated in a T47D cell-based assay. […] In this internalization assay, the potency of the test peptides was evaluated in the presence of serum albumin, which is the main protein component in the blood. T47D cells were maintained in RPMI media (containing required amount of fetal bovine serum) and regularly sub-cultured. […] The test peptide dilution series were allowed to incubate at room temperature for 30 min. Then the media was aspirated from the 96-well cell plate and test peptide dilution series were added. After 1 hr incubation, the media with test peptides was aspirated out and AF647-conjugated detection peptide was added at fixed concentration of 200 nM. […] The cells were washed again after a 2 hr incubation in preparation for flow cytometry analysis. The Median Fluorescence Intensity (MFI) of the AF647-positive population was measured (after removing dead cells and non-singlets from the analysis). The MFI values were used to generate a dose-response curve and obtain IC50 potencies for the test peptides.

[5] = target: T2, human ferroportin (Homo sapiens, UniProt Q9NP59); assay: FPN activity assay: internalization/degradation of ferroportin-GFP in stably transfected HEK293 cells (decrease in GFP fluorescence); assay type: cell-based; conditions: Table 2B; HEK293 cells expressing human ferroportin-GFP, at least 18 hours incubation; read-out: FPN EC50
T2 construct: expressed in transfected cells
T2 sequence (Q9NP59 1-571): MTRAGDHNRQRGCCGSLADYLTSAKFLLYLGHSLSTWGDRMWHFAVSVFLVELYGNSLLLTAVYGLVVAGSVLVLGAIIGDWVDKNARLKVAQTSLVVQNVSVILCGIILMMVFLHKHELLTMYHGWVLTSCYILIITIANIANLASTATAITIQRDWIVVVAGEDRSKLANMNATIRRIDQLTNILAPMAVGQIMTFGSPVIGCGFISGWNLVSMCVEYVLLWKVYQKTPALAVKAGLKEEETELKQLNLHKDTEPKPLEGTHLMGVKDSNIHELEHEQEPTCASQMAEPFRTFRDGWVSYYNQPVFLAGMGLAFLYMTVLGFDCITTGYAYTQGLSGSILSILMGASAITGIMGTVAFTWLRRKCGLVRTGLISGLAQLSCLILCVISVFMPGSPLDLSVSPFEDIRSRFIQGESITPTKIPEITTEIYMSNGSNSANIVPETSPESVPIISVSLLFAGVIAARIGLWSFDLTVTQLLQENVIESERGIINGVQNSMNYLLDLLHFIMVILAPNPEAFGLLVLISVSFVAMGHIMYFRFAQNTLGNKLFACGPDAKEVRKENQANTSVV
Protocol: Following internalization, the ferroportin protein is degraded.
A retro inverse peptide is a peptide with a reversed sequence in all D amino acids. An example is that Hy-Glu-Thr-His-NH2 becomes Hy-DHis-DThr-DGlu-NH2. The EC50 of these reference compounds for ferroportin internalization/degradation was determined according to the FPN activity assay described above. These peptides served as control standards.
These values were determined as described herein.

[6] = target: T3, human ferroportin (SLC40A1) fused in frame with GFP, stably expressed in HEK293 cells (human, UniProt Q9NP59 1-571); assay: cell-based or functional assay
T3 sequence (looked up): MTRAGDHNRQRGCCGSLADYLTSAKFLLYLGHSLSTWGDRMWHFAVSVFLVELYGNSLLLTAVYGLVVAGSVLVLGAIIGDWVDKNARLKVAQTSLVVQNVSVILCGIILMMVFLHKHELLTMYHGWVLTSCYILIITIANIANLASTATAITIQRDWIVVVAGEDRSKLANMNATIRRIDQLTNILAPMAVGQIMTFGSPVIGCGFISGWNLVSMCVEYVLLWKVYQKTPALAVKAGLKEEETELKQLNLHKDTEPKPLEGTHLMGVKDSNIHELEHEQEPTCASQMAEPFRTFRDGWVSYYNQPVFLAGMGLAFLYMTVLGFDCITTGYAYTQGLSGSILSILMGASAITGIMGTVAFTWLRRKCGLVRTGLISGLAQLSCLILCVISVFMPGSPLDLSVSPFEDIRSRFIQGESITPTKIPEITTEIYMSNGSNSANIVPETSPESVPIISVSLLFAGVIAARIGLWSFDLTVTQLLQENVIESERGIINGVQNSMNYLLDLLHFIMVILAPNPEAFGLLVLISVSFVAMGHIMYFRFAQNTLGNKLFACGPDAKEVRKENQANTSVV

[7] = target: T3, human ferroportin (SLC40A1) fused in …; assay: cell-based or functional assay; remark: listed apart in the source

In the case of Mini-Hepcidin 1-9 (peptide), the Potency EC50 [1] is reported as 712 nM.

Work on CC[C@H](C)[C@@H]1NC(=O)[C@@H](NC(=O)[C@@H]2CCCN2C(=O)[C@@H](NC(=O)[C@H](Cc2cnc[nH]2)NC(=O)[C@@H](NC(=O)[C@H](CCC(=O)O)NC(=O)CC(C)C)C(C)O)C(c2ccccc2)c2ccccc2)CSSC[C@@H](C(N)=O)NC(=O)[C@@H](CCCCN)NC(=O)C[C@H](Cc2ccccc2)NC(=O)[C@H](CCCCNC(=O)COCCOCCNC(=O)COCCOCCNC(=O)CCCCCNC(=O)CCCCCCCCCCCCCCCCC(=O)O)NC1=O (stereo partly shown) [Compound 12, Isovaleric Acid-E-T-H-[Dpa]-P-[Cys]-I-[Lys(1Peg2_1Peg2_Ahx_C18_Diacid)]-[bhPhe]-[(D)Lys]-[Cys]-NH2] yielded a half-life at 20 μM [2] of 90 min and an EC50 [3] of 12.9 µM.

Work on CC[C@H](C)[C@@H]1NC(=O)[C@@H](NC(=O)[C@@H]2CCCN2C(=O)[C@@H](NC(=O)[C@H](Cc2cnc[nH]2)NC(=O)[C@@H](NC(=O)[C@H](CCC(=O)O)NC(=O)CC(C)C)[C@@H](C)O)C(c2ccccc2)c2ccccc2)CSSC[C@@H](C(N)=O)NC(=O)[C@@H](CCCCN)NC(=O)C[C@H](Cc2ccccc2)NC(=O)[C@H](CCCCNC(=O)COCCOCCNC(=O)COCCOCCNC(=O)[C@H](CN)NC(=O)CCCCCCCCCCCCCCCCC(=O)O)NC1=O [Compound 278, Isovaleric Acid-E-T-H-[Dpa]-P—C—I-[Lys(1PEG2_1PEG2_Dap_C18_Diacid)]-[bhPhe]-[(D)Lys]-C—NH2] yielded an IC50 [4] of 14.2 nM, a DC50 [5] of 4.3 nM and an EC50 [3] of 15.5 µM.

For RI-Mini Hepcidin (peptide), the Potency EC50 (nM) [1] was over 10000 nM.

Hepcidin (peptide) gave a Potency EC50 [1] of 34 nM.

CC[C@H](C)[C@@H]1NC(=O)[C@@H](NC(=O)[C@@H]2CCCN2C(=O)[C@@H](NC(=O)[C@H](Cc2cnc[nH]2)NC(=O)[C@@H](NC(=O)[C@H](CCC(=O)OC)NC(=O)CC(C)C)[C@@H](C)O)C(c2ccccc2)c2ccccc2)CSSC[C@@H](C(N)=O)NC(=O)[C@@H](CCCCN)NC(=O)C[C@H](Cc2ccccc2)NC(=O)[C@H](CCCCNC(=O)COCCOCCNC(=O)COCCOCCNC(=O)[C@H](CN)NC(=O)CCCCCCCCCCCCCCCCC(=O)O)NC1=O [Compound 279, Isovaleric Acid-[Glu_OMe]-T-H-[Dpa]-P—C—I-[Lys(1PEG2_1PEG2_Dap_C18_Diacid)]-[bhPhe]-[(D)Lys]-C—NH2] gave an IC50 [4] of 15.4 nM and an EC50 [3] of 8 µM.

B1: Compound 297 (peptide)
peptide: XETHXPCIXXXC
modifications: Isovaleric Acid-E-T-H-[Dpa]-P-C-I-[Lys(1PEG2_1PEG2_Ahx_C18_Diacid)]-[bhPhe]-[(D)Lys(PEG40KB-C-NH2)
In the case of B1, the “FPN EC50” value [6] is reported as 1360 nM.

B2: Compound 611 (peptide)
peptide: XEXHXPCIXXXXC
modifications: not fully specified; [Isovaleric Acid]-E-S-H-[Dpa]-P-C-I-[(D)Lys]-[aMePhe]-[Lys(PEG12_Palm)]-[(D)Lys]-C-NH2
For B2, the “FPN IC50 (nM), grade: *=>500 nM” value [7] was over 500 nM.

For Isovaleryl-ETH[Dip]PCIK(PEG40KB)[β3hF]K([PEG12-Palmitoyl])RC-NH2 (disulfide 6-12 (inferred)) [Compound 296], the “FPN EC50” value [6] was 1080 nM.

B3: Compound 312 (peptide)
peptide: XETHXPCIXXXC
modifications: Isovaleric Acid-E-T-H-[Dpa]-P-C-I-[Lys(Ahx_Palm)]-[bhPhe]-[(D)Lys(PEG20K)]-C-NH2
In the case of B3, the “FPN EC50” value [6] is reported as 32.6 nM.

B4: Compound 314 (peptide)
peptide: XETHXPCIXXXC
modifications: Isovaleric Acid-E-T-H-[Dpa]-P-C-I-[Lys(1PEG2_1PEG2_Ahx_Palm)]-[bhPhe]-[(D)Lys(PEG20K-C-NH2)
In the case of B4, the “FPN EC50” value [6] is reported as 357 nM.

For Isovaleryl-ET[Dap][Dip]PCI[dK][β3hF]K([PEG12-Palmitoyl])RC-NH2 (disulfide 6-12 (inferred)) [Compound 603], the “FPN IC50 (nM), grade: *=>500 nM” value [7] was over 500 nM.
